The values that follow are results of earlier work, collected in paper PMC10380471.

Read-outs that look alike come from different tables or passages of the source.

The target in series [1] is consensus peptide.
For series [2], the target named is consensus peptide. The source holds these as a separate data set.
Series [3] deals with consensus peptide. The source holds these as a separate data set.

Sequence of Pim-2 (Q9P1W9 whole entry): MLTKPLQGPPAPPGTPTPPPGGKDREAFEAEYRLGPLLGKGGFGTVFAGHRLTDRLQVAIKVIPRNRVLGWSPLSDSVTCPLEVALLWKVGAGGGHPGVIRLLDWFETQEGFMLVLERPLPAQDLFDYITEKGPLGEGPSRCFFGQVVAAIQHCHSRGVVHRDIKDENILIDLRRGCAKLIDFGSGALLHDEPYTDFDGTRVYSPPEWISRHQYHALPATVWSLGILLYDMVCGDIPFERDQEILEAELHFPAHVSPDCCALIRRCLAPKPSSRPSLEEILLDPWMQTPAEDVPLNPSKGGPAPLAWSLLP
Sequence of Pim-1 (P11309 whole entry): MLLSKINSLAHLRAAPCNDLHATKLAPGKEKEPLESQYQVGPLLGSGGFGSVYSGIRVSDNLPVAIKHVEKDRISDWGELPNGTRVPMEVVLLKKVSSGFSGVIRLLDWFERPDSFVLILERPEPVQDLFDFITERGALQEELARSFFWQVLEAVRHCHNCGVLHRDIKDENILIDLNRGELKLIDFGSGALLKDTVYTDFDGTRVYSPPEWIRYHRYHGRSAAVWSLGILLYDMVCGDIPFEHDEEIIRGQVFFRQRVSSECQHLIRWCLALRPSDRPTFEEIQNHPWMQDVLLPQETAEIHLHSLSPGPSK

As for Pim-1 (from UniProt P11309), in the series with consensus peptide [1], the Kd was 58 nM.
In the case of Pim-2 (from UniProt Q9P1W9), in the series with consensus peptide [2], the dissociation constant (Kd) was 640 nM.
Take Pim-3 (from UniProt Q86V86): in the series with consensus peptide [3], the dissociation constant Kd is 39 nM.

What is called Kd is the constant that tells how readily two partners part at equilibrium.
